{"source": "paper doi:10.1101/2021.10.13.464285", "biological_target": "Respiratory syncytial virus fusion (F) glycoprotein (respiratory syncytial virus, strain rA2-mK+ (parent strain A2))", "experiment": "cryo-EM structure", "data": [{"substance": "Respiratory syncytial virus fusion (F) glycoprotein (natural protein)", "values": [{"measurement": "stoichiometry N", "value": 3}]}]}
